Experimental data: PMC3808539, “CtpB Assembles a Gated Protease Tunnel Regulating Cell-Cell Signaling during Spore Formation in Bacillus subtilis” (Cell, 2013)
Where a chain is given by its changes, count along the chain named. Names and notes keep the numbering of the source.

B1: WT: wild-type CtpB, PDZ-protease of B. subtilis (protein, UniProt O35002 24-480, looked up)
Carboxy-terminal processing …: GINLLEMDKPQTAAVPATAQADSERDKAMDKIEKAYELISNEYVEKVDREKLLEGAIQGMLSTLNDPYSVYMDKQTAKQFSDSLDSSFEGIGAEVGMEDGKIIIVSPFKKSPAEKAGLKPNDEIISINGESMAGKDLNHAVLKIRGKKGSSVSMKIQRPGTKKQLSFRIKRAEIPLETVFASEKKVQGHSVGYIAISTFSEHTAEDFAKALRELEKKEIEGLVIDVRGNPGGYLQSVEEILKHFVTKDQPYIQIAERNGDKKRYFSTLTHKKAYPVNVITDKGSASASEILAGALKEAGHYDVVGDTSFGKGTVQQAVPMGDGSNIKLTLYKWLTPNGNWIHKKGIEPTIAIKQPDYFSAGPLQLKEPLKVDMNNEDVKHAQVLLKGLSFDPGREDGYFSKDMKKAVMAFQDQNKLNKTGVIDTRTAETLNQQIEKKKSDEKNDLQLQTALKSLFVN
B2: CtpBS309A: inactive CtpB S309A mutant (protein, UniProt O35002 24-480, looked up, variant S309A)
Carboxy-terminal processing …: B1 Carboxy-terminal processing … with S286A

Design: species or system Bacillus subtilis
Source text: Figure S1 CtpB Autocleavage and Dimerization, Related to Figures 1 and 2 (A) SDS-PAGE analysis monitoring auto-degradation of CtpB. […] (C) Comparison of the gelfiltration profiles of wild-type CtpB and a Δ86 construct lacking the N-terminal dimerization domain. An SDS-PAGE analysis is shown below the chromatograms. (D) Cleavage assays comparing the activity of wild-type and Δ86 CtpB against the 4B predigested 4FAproc substrate.

Molecule | auto-degradation
B1 | auto-degraded at position 36 and 42
B2 | no further degradation
